Patent US12295987B2, “Method of using a GIP/GLP1 co-agonist for diabetes” (Eli Lilly and Company, priority 2018, dated 2025)

target: T1, human gastric inhibitory peptide receptor (hGIPR) (Homo sapiens, UniProt P48546); test: cAMP pharmacological functional assay in presence of 0.1% casein, hGIPR; assay type: cell-based; settings: ratio of hGIPR to hGLP1R cAMP EC50 ratios
T1 construct: expressed in transfected cells; host or cells: HEK293
T1 sequence (P48546 22-466): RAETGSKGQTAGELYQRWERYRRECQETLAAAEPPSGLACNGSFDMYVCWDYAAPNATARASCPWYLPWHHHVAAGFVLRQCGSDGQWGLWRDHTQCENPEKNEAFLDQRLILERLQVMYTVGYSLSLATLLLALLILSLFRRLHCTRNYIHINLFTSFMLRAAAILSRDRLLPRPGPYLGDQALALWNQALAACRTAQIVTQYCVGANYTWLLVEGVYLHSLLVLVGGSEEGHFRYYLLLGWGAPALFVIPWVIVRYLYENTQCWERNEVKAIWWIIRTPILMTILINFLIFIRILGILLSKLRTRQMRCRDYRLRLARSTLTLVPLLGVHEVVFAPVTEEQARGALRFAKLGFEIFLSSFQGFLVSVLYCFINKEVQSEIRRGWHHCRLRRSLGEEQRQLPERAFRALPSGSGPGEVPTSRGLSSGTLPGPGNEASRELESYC

Substance	[hGIPR/hGLP1R] EC50 Ratio
Y-Aib-EGT-αMeF(2F)-TSDYSI-αMeL-LDKK((2-[2-(2-Amino-ethoxy)-ethoxy]-acetyl)-(γGlu)-(2-[2-(2-Amino-ethoxy)-ethoxy]-acetyl)-CO—(CH2)18—CO2H)AQ-Aib-EFI-(D-Glu)-YLIEGGPSSGAPPPS-NH2 (YXEGTXTSDYSIXLDKKAQXEFIXYLIEGGPSSGAPPPS; Aib, αMeF(2F), αMeL, D-Glu; lipidated K; amide; (2)..(2) Xaa at position 2 is Aib; (6)..(6) Xaa at position 6 is alpha-methyl-Phe(2F); (13)..(13) Xaa at position 13 is alpha-methyl-Leu; MOD_RES (17)..(17) Lys at position 17 is chemically modified by conjugation of the epsilon-amino group of the Lys side chain with (2-[2-(2-Amino-ethoxy)-ethoxy]-acetyl)-(gamma-Glu)-(2-[2-(2-Amino- ethoxy)-ethoxy]-acetyl)-CO-(CH2)18-CO2H; (20)..(20) Xaa at positi) [Peptide 211]	3.59
Y-Aib-EGT-αMeF(2F)-TSDYSILLD-Orn-K((2-[2-(2-Amino-ethoxy)-ethoxy]-acetyl)2-(γGlu)-CO—(CH2)16—CO2H)AQ-Aib-EFI-(D-Glu)-YLIEGGPSSGAPPPS-NH2 (YXEGTXTSDYSILLDXKAQXEFIXYLIEGGPSSGAPPPS; Aib, Orn, αMeF(2F), lipidated Lys, D-Glu, amide; (2)..(2) Xaa at position 2 is Aib; (6)..(6) Xaa at position 6 is alpha-methyl-Phe(2F); (16)..(16) Xaa at position 16 is Orn; MOD_RES (17)..(17) Lys at position 17 is chemically modified by conjugation of the epsilon-amino group of the Lys side chain with (2-[2-(2-amino-ethoxy)-ethoxy]-acetyl)2-(gamma-Glu)-CO-(CH2)16- CO2H; (20)..(20) Xaa at position 20 is Aib; (24)..(24) Xaa at position 24 is D-Gl) [Peptide 248]	6.35
Y-Aib-EGT-αMeF(2F)-TSDYSILLDEK((2-[2-(2-Amino-ethoxy)-ethoxy]-acetyl)2-(γGlu)-CO—(CH2)18—CO2H)AQ-Aib-EFI-(D-Glu)-YLIEGGPSSGAPPPS-NH2 (YXEGTXTSDYSILLDEKAQXEFIXYLIEGGPSSGAPPPS; Aib, αMeF(2F), D-Glu; lipidated K; amide; (2)..(2) Xaa at position 2 is Aib; (6)..(6) Xaa at position 6 is alpha-methyl-Phe(2F); MOD_RES (17)..(17) Lys at position 17 is chemically modified by conjugation of the epsilon-amino group of the Lys side chain with (2-[2-(2-amino-ethoxy)-ethoxy]-acetyl)2-(gamma-Glu)-CO-(CH2)18- CO2H; (20)..(20) Xaa at position 20 is Aib; (24)..(24) Xaa at position 24 is D-Glu; MOD_RES (39)..(39) Ser at position) [Peptide 226]	3.42
Y-Aib-EGT-αMeF-TSDHSILLDKK((2-[2-(2-Amino-ethoxy)-ethoxy]-acetyl)2-(γGlu)-CO—(CH2)18—CO2H)AQ-Aib-AFIEYLIEGGPSSGAPPPS-NH2 (YXEGTXTSDHSILLDKKAQXAFIEYLIEGGPSSGAPPPS; Aib, αMeF; acylated lysine C20 diacid; amide; (2)..(2) Xaa at position 2 is Aib; (6)..(6) Xaa at position 6 is alpha-methyl-Phe; MOD_RES (17)..(17) Lys at position 17 is chemically modified by conjugation of the epsilon-amino group of the Lys side chain with (2-[2-(2-amino-ethoxy)-ethoxy]-acetyl)2-(gamma-Glu)-CO-(CH2)18- CO2H; (20)..(20) Xaa at position 20 is Aib; MOD_RES (39)..(39) Ser at position 39 is amidated) [Peptide 128]	3.51
Y-Aib-EGT-αMeF-TSDLSILLDKK((2-[2-(2-Amino-ethoxy)-ethoxy]-acetyl)2-(γGlu)-CO—(CH2)18—CO2H)AQ-Aib-AFIEYLIEGGPSSGAPPPS-NH2 (YXEGTXTSDLSILLDKKAQXAFIEYLIEGGPSSGAPPPS; Aib, αMeF; acylated lysine C20 diacid; amide; (2)..(2) Xaa at position 2 is Aib; (6)..(6) Xaa at position 6 is alpha-methyl-Phe; MOD_RES (17)..(17) Lys at position 17 is chemically modified by conjugation of the epsilon-amino group of the Lys side chain with (2-[2-(2-amino-ethoxy)-ethoxy]-acetyl)2-(gamma-Glu)-CO-(CH2)18- CO2H; (20)..(20) Xaa at position 20 is Aib; MOD_RES (39)..(39) Ser at position 39 is amidated) [Peptide 129]	3.46
Y-Aib-EGT-αMeF-TSDYSI-Aib-LDEK((2-[2-(2-Amino-ethoxy)-ethoxy]-acetyl)2-(γGlu)-CO—(CH2)18—CO2H)AQ-Aib-EFI-(D-Glu)-YLIEGGPSSGAPPPS-NH2 (YXEGTXTSDYSIXLDEKAQXEFIXYLIEGGPSSGAPPPS; Aib, αMeF, D-Glu; lipidated K; amide; (2)..(2) Xaa at position 2 is Aib; (6)..(6) Xaa at position 6 is alpha-methyl-Phe; (13)..(13) Xaa at position 13 is Aib; MOD_RES (17)..(17) Lys at position 17 is chemically modified by conjugation of the epsilon-amino group of the Lys side chain with (2-[2-(2-amino-ethoxy)-ethoxy]-acetyl)2-(gamma-Glu)-CO-(CH2)18- CO2H; (20)..(20) Xaa at position 20 is Aib; (24)..(24) Xaa at position 24 is D-Glu; M) [Peptide 225]	3.80
Y-Aib-EGT-αMeF-TSDYSI-αMeL-LDEK((2-[2-(2-Amino-ethoxy)-ethoxy]-acetyl)2-(γGlu)-CO—(CH2)16—CO2H)AQ-Aib-EFI-(D-Glu)-YLIEGGPSSGAPPPS-NH2 (YXEGTXTSDYSIXLDEKAQXEFIXYLIEGGPSSGAPPPS; Aib, αMeF, αMeL, D-Glu; lipidated K; amide; (2)..(2) Xaa at position 2 is Aib; (6)..(6) Xaa at position 6 is alpha-methyl-Phe; (13)..(13) Xaa at position 13 is alpha-methyl-Leu; MOD_RES (17)..(17) Lys at position 17 is chemically modified by conjugation of the epsilon-amino group of the Lys side chain with (2-[2-(2-amino-ethoxy)-ethoxy]-acetyl)2-(gamma-Glu)-CO-(CH2)16- CO2H; (20)..(20) Xaa at position 20 is Aib; (24)..(24) Xaa at position 2) [Peptide 213]	5.58
Y-Aib-EGT-αMeF-TSDYSI-αMeL-LDEK((2-[2-(2-Amino-ethoxy)-ethoxy]-acetyl)2-(γGlu)-CO—(CH2)18—CO2H)AQ-Aib-AFIEYLIEGGPSSGAPPPS-NH2 (YXEGTXTSDYSIXLDEKAQXAFIEYLIEGGPSSGAPPPS; Aib, αMeF, αMeL; acylated lysine C20 diacid; amide; (2)..(2) Xaa at position 2 is Aib; (6)..(6) Xaa at position 6 is alpha-methyl-Phe; (13)..(13) Xaa at position 13 is alpha-methyl-Leu; MOD_RES (17)..(17) Lys at position 17 is chemically modified by conjugation of the epsilon-amino group of the Lys side chain with (2-[2-(2-amino-ethoxy)-ethoxy]-acetyl)2-(gamma-Glu)-CO-(CH2)18- CO2H; (20)..(20) Xaa at position 20 is Aib; MOD_RES (39)..(39) Ser at po) [Peptide 115]	2.49
Y-Aib-EGT-αMeF-TSDYSI-αMeL-LDEK((2-[2-(2-Amino-ethoxy)-ethoxy]-acetyl)2-(γGlu)-CO—(CH2)18—CO2H)AQ-Aib-EFI-(D-Glu)-YLIEGGPSSGAPPPS-NH2 (YXEGTXTSDYSIXLDEKAQXEFIXYLIEGGPSSGAPPPS; Aib, αMeF, αMeL, D-Glu; lipidated K; amide; (2)..(2) Xaa at position 2 is Aib; (6)..(6) Xaa at position 6 is alpha-methyl-Phe; (13)..(13) Xaa at position 13 is alpha-methyl-Leu; MOD_RES (17)..(17) Lys at position 17 is chemically modified by conjugation of the epsilon-amino group of the Lys side chain with (2-[2-(2-amino-ethoxy)-ethoxy]-acetyl)2-(gamma-Glu)-CO-(CH2)18- CO2H; (20)..(20) Xaa at position 20 is Aib; (24)..(24) Xaa at position 2) [Peptide 227]	4.42
